In series [1] the target is histone H4 (human, UniProt P62805 1-103). The experiment in a line: FET and QCM; 140 mM KCl; 44-2650 nM H4; FET: 1 mM phosphate, 140 mM KCl, pH 7.4, 25 C; aptamer/sulfobetaine SAM on gold annealed at 100 C and slowly cooled; QCM 30 MHz, 25 C (buffer not separately stated). Conditions: protein: commercial; G-quadruplex with K+.
Series [2] deals with histone H3.1 (human, UniProt P68431 1-136). The experiment in a line: FET and QCM; 140 mM KCl; 33-1950 nM H3; FET: 1 mM phosphate, 140 mM KCl, pH 7.4, 25 C; aptamer/sulfobetaine SAM on gold annealed at 100 C and slowly cooled; QCM 30 MHz, 25 C (buffer not separately sta).

This is an account of results in article PMC7570090, “Label-Free Monitoring of Histone Acetylation Using Aptamer-Functionalized Field-Effect Transistor and Quartz Crystal Microbalance Sensors”.

B1: anti-histone H4 aptamer (structured_DNA)
DNA: TTTTGGTGGGGTTCCCGGGAGGGCGGCTACGGGTTCCGTAATCAGATTTGTGT
modifications: 5' 6-mercaptohexyl linker
Consider B1, for which the binding result in series [1] is on record as “binds”.

B2: anti-histone H3 aptamer (structured_DNA)
DNA: TTTGAGTGTGGTTCCCGGGAGGGCGCCTACGGGTCCCGTATTCGGATTTGTGC
modifications: 5' 6-mercaptohexyl linker
Consider B2, for which the binding result in series [2] was “binds”.
